Experimental data published in PMC11092868, “Mapping Novel Frataxin Mitochondrial Networks Through Protein- Protein Interactions” (Research Square, 2024).

B1: Peroxiredoxin 3, endogenous mouse (natural protein, UniProt P20108 63-257, looked up)
chain: TPAVTQHAPYFKGTAVVNGEFKELSLDDFKGKYLVLFFYPLDFTFVCPTEIVAFSDKANEFHDVNCEVVAVSVDSHFSHLAWINTPRKNGGLGHMNITLLSDITKQISRDYGVLLESAGIALRGLFIIDPNGVVKHLSVNDLPVGRSVEETLRLVKAFQFVETHGEVCPANWTPESPTIKPSPTASKEYFEKVHQ
notes: Peroxiredoxin 3, mitochondrial, mouse; also called Prdx3; source: endogenous, mouse cerebellum and heart lysates
B2: Peroxiredoxin 3, endogenous human (natural protein, UniProt P30048 62-256, looked up)
chain: APAVTQHAPYFKGTAVVNGEFKDLSLDDFKGKYLVLFFYPLDFTFVCPTEIVAFSDKANEFHDVNCEVVAVSVDSHFSHLAWINTPRKNGGLGHMNIALLSDLTKQISRDYGVLLEGSGLALRGLFIIDPNGVIKHLSVNDLPVGRSVEETLRLVKAFQYVETHGEVCPANWTPDSPTIKPSPAASKEYFQKVNQ
notes: Peroxiredoxin 3, mitochondrial, human; also called Prdx3; PRDX3; source: endogenous: A549 cells (BioID); human lymphoblast lysate fractions (co-IP); human dermal fibroblast lysate (redox blot)

Biological target: the molecule itself
Assay: non-reducing SDS-PAGE and immunoblot after NEM alkylation; lysis in alkylation buffer with 100 mM N-ethylmaleimide and 10 ug/mL catalase; oxidized dimers against reduced monomers; with or without beta-mercaptoethanol in Laemmli buffer

Protein	stoichiometry N
B1	2
B2	2
